Laboratory results: patent EP4039268A1 (IMBA-Institut für Molekulare Biotechnologie GmbH, dated 2022)

How the values were obtained:
[1] = target: T1, human recombinant soluble ACE2 (human, UniProt Q9BYF1 18-740); assay: ELISA
T1 construct: also called hrsACE2

[2] = target: T2, full-length trimeric SARS-CoV-2 Spike protein (Spike-H6) (SARS-CoV-2, N-glycosylated (22 N-glycosylation sites)); assay: ELISA screen
T2 construct: also called trimeric Spike; full-length Spike-H6

[3] = target: T3, monomeric SARS-CoV-2 receptor binding domain (RBD-H6) (SARS-CoV-2, UniProt P0DTC2 319-541); assay: ELISA screen
T3 construct: Made in HEK293-6E cells; also called RBD Spike; monomeric RBD

[4] = target: T1, human recombinant soluble ACE2; assay: ELISA screen
[5] = target: T2, full-length trimeric SARS-CoV-2 Spike …; assay: inhibition of Spike binding to Vero E6 cells, AFM
[6] = target: T2, full-length trimeric SARS-CoV-2 Spike …; assay: AFM single molecule force spectroscopy, Evans model
[7] = target: T2, full-length trimeric SARS-CoV-2 Spike …; assay: SPR, Spike immobilized, bivalent analyte model, first binding step

T1 sequence (Q9BYF1 18-740 limits assumed): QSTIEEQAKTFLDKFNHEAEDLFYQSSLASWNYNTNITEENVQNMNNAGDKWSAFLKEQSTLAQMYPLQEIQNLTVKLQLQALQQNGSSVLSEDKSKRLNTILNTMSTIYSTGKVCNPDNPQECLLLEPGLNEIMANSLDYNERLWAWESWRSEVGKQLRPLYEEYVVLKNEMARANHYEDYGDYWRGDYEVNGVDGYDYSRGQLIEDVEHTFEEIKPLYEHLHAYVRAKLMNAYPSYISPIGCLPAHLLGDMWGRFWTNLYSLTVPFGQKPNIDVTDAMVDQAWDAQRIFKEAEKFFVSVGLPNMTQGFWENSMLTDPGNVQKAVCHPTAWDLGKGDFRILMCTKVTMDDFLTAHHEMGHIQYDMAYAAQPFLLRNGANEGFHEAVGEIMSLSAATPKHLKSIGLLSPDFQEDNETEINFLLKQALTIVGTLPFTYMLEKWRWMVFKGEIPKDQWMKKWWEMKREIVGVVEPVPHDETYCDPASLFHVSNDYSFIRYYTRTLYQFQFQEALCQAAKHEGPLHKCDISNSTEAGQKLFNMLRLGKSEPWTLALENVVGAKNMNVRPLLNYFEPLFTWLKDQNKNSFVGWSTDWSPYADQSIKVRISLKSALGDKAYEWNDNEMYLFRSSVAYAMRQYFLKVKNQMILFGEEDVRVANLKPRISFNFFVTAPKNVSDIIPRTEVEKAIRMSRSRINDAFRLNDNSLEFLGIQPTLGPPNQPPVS

Binder	binding result [1]	Mean normalized OD [2]	Mean normalized OD [3]	Mean normalized OD [4]	Ki [5]	koff [6]	Kd [7]	koff [7]	kon [7]
Clec12b CRD-mouse IgG2a-Fc fusion protein (Fc fusion) YGNSCYYFSINEEKSWSDSRKDCIDKNATLVKIDSTEERDLLQSQLSLTFSFFWLGLSWNSSGRNWLWEDGSFPPPTLFSDKELASFNGSRDCAYFERGNIYASRCSAEIPWICEGGGSGGGSGGGS	no binding (tested: 10 µg/ml)	0.002 OD	0.001 OD	0.007 OD	–	–	–	–	–
Selp CRD-mouse IgG2a-Fc fusion protein (Fc fusion) WTYNYSTKAYSWNNSRVFCRRHFTDLVAIQNKNEIAHLNDVIPFFNSYYWIGIRKINNKWTWVGTNKTLTEEAENWADNEPNNKKNNQDCVEIYIKSNSAPGKWNDEPCFKRKRALCGGGSGGGSGGGS	no binding (tested: 10 µg/ml)	0.014 OD	0.007 OD	0 OD	–	–	–	–	–
Siglec15 CRD-mouse IgG2a-Fc fusion protein (Fc fusion) PAQRWSMQVPAEVNAEAGDAAVLPCTFTHPHRHYDGPLTAIWRSGEPYAGPQVFRCTAAPGSELCQTALSLHGRFRLLGNPRRNDLSLRVERLALADSGRYFCRVEFTGDAHDRYESRHGGGSGGGSGGGS	no binding (tested: 10 µg/ml)	0.008 OD	0.001 OD	0.011 OD	–	–	–	–	–
Clec14a CRD-mouse IgG2a-Fc fusion protein (Fc fusion) ASGACYSLHHATFKRRAAEEACSLRGGTLSTVHSGSEFQAVLLLLRAGPGPGGGSKDLLFWVALERSISQCTQEKEPLRGFSWLHPDSEDSEDSPLPWVEEPQRSCTVRKCAALQATRGVEPAGWKEMRCHLRTDGYLCKYGGGSGGGSGGGS	no binding (tested: 10 µg/ml)	0.012 OD	0.004 OD	0.029 OD	–	–	–	–	–
Asgr2 CRD-mouse IgG2a-Fc fusion protein (Fc fusion) CCPVNWVEFGGSCYWFSRDGLTWAEADQYCQLENAHLLVINSREEQDFVVKHRSQFHIWIGLTDRDGSWKWVDGTDYRSNYRNWAFTQPDNWQGHEQGGGEDCAEILSDGHWNDNFCQQVNRWVCEKGGGSGGGSGGGS	no binding (tested: 10 µg/ml)	0.003 OD	0.013 OD	0.034 OD	–	–	–	–	–
Clec2e CRD-mouse IgG2a-Fc fusion protein (Fc fusion) FGNKCFYFSEDMGNWTFSQSSCIALDAHLALFDSLEELNFLKRYKGASDHWIGLHRESSEHPWIWTDNTEYNNLVLTRGGGECAYLSNRGIYNSSGDIHKKWICNGGGSGGGSGGGS	no binding (tested: 10 µg/ml)	0.017 OD	0.016 OD	0.066 OD	–	–	–	–	–
Clec1b CRD-mouse IgG2a-Fc fusion protein (Fc fusion) HGDSCYGFFRRNLTWEESKQYCTEQNATLVKTASQSTLDYIAERITSVRWIGLSRQNSKKDWMWEDSSVLRKNGINLSGNTEENMNCAYLHNGKIHPASCKERHYLICEGGGSGGGSGGGS	no binding (tested: 10 µg/ml)	0.024 OD	0.03 OD	0.04 OD	–	–	–	–	–
Clec4g CRD-mouse IgG2a-Fc fusion protein (Fc fusion) FQGSCYYFSETQATWDTAQSYCGGQGAHLVIVRGLNEQGFLSQHTRGRGYWLGLRAVRHLNKIQGYRWVDGASLNFSHWNSGEPNDSRGHEDCIMMLHSGLWNDAPCTNERDGWICGGGSGGGSGGGS	no binding (tested: 10 µg/ml)	1.68 OD	–	0.04 OD	35 to 70 nM	0.037 s⁻¹	1620 nM	0.0997 s⁻¹	61700 M⁻¹ s⁻¹
Clec10a CRD-mouse IgG2a-Fc fusion protein (Fc fusion) CCPLHWTEHEGSCYWFSESEKSWPEADKYCRLENSHLVVVNSLEEQNFLQNRLANVVSWIGLTDQNGPWRWVDGTDFEKGFKNWAPLQPDNWFGHGLGGGEDCAHITTGGPWNDDVCQRTFRWICEMGGGSGGGSGGGS	no binding (tested: 10 µg/ml)	0.069 OD	0.064 OD	0.125 OD	–	–	–	–	–
Thbd CRD-mouse IgG2a-Fc fusion protein (Fc fusion) VEHECFALFQGPATFLDASQACQRLQGHLMTVRSSVAADVISLLLSQSSMDLGPWIGLQLPQGCDDPVHLGPLRGFQWVTGDNHTSYSRWARPNDQTAPLCGPLCVTVSTATEAAPGEPAWEEKPCETETQGFLCEFGGGSGGGSGGGS	no binding (tested: 10 µg/ml)	0.003 OD	0 OD	0.001 OD	–	–	–	–	–
Cd72 CRD-mouse IgG2a-Fc fusion protein (Fc fusion) CCPCGWIPYQERCFYISHTLGSLEESQKYCTSLSSKLAAFDEPSKYYYEVSLPSGLEELLDRSKSYWIQMSKKWRQDSDSQSRHCVRIKTYYQKWERTISKCAELHPCICESGGGSGGGSGGGS	no binding (tested: 10 µg/ml)	0.033 OD	0.015 OD	0.044 OD	–	–	–	–	–
Sftpd CRD-mouse IgG2a-Fc fusion protein (Fc fusion) VGDKIFRTADSEKPFEDAQEMCKQAGGQLASPRSATENAAIQQLITAHNKAAFLSMTDVGTEGKFTYPTGEPLVYSNWAPGEPNNNGGAENCVEIFTNGQWNDKACGEQRLVICEFGGGSGGGSGGGS	no binding (tested: 10 µg/ml)	0.031 OD	0.002 OD	0.016 OD	–	–	–	–	–
Cd22 CRD-mouse IgG2a-Fc fusion protein (Fc fusion) SANDWTVDHPQTLFAWEGACIRIPCKYKTPLPKARLDNILLFQNYEFDKATKKFTGTVLYNATKTEKDPESELYLSKQGRVTFLGNRIDNCTLKIHPIRANDSGNLGLRMTAGTERWMEPIHLNVSEGGGSGGGSGGGS	no binding (tested: 10 µg/ml)	0.027 OD	0.004 OD	0.006 OD	–	–	–	–	–
Clec11a CRD-mouse IgG2a-Fc fusion protein (Fc fusion) LGHKCFLLSRDFETQAAAQARCKARGGSLAQPADRQQMDALSRYLRAALAPYNWPVWLGVHDRRSEGLYLFENGQRVSFFAWHRAFSLESGAQPSAATHPLSPDQPNGGVLENCVAQASDDGSWWDHDCERRLYFVCEGGGSGGGSGGGS	no binding (tested: 10 µg/ml)	0.032 OD	0.011 OD	0.17 OD	–	–	–	–	–
